Results as given in patent US9951110B2, “Neuropeptides useful as insecticides” (THE STATE OF ISRAEL, MINISTRY OF AGRICULTURE & RURAL …, priority 2013, dated 2018).
Ends that are not written are not given here.

Tests used:
[1] = test system: Heliothis peltigera female moths; test: Topical application of agonistic peptides: stimulation of sex pheromone biosynthesis (solvent effect on penetrability); assay type: in vivo
Protocol: FIG. 6. is a graph showing the effect of a topically applied peptide (Peptide 12 in Table 1) on stimulation of sex pheromone biosynthesis in Heliothis peltigera female moths. • The peptide was tested at a concentration of 300 pmol and was applied in DDW, DMSO and IIS for different times (ranging from 0.5 to 7 h). • Statistical analysis compared pheromone content in the presence of the peptide in a given solvent (DDW, DMSO or IIS) at different time points (indicated by small black letters) and between solvents at the same time point (indicated by capital light grey letters). […] FIG. 7A and FIG. 7B are graphs showing the dose-response of a topically applied peptide [Peptide 12 (7A) and Peptide 11 (7B)] on stimulation of sex pheromone biosynthesis in Heliothis peltigera female moths. The peptide was tested at the indicated concentrations and was applied in DDW, IIS and DMSO for 3 h. • Statistical analysis compared pheromone content in the presence of the peptide in a given solvent (DDW, DMSO or IIS) at different concentrations (indicated by black letters) and between solvents at the same concentration (indicated by capital light grey letters). […] The tested peptides are applied onto the insect (e.g. moths) at scotophase (when pheromone is naturally synthesized) in a given solvent for the indicated times. Examination of the effect of carrier solvent on penetrability and activity was tested as a function of time and concentration with peptides 11 and 12 (see Table 1) which are agonistic peptides, i.e. stimulate sex pheromone production in female moths.

[2] = test system: Heliothis peltigera female moths; test: Environmental (outdoor storage) stability, read out as sex pheromone production after injection; assay type: physicochemical; conditions: for stability: pheromone-stimulating activity after storage vs peptide stored at -80° C.: direct sunlight, about 31° C.; for stability in the course of storage: 4 weeks
Protocol: FIG. 9. is a graph showing the stability of Peptide 12 in a powder form under different storage conditions. • The stability was evaluated by determining sex pheromone production in Heliothis peltigera females exposed to said peptide. • The storage conditions are: (i) exposure to direct sunlight and an average temperature of about 31° C. for 1 week (“outdoor 1 week”); (ii) room temperature (RT); and (iii) −80° C. • Sex pheromone content is expressed as a percentage of the pheromone content obtained by injection of a peptide stored at −80° C. (defined as 100%). Statistical analysis compared pheromone content generated by injection of a peptide stored at room temperature (RT) for 1 week or a peptide kept for 1 week outdoors with that of the control (a peptide stored at −80° C.). […] FIG. 10A and FIG. 10B are graphs showing the stability of Peptide 12 dissolved in DDW or ITS at a concentration of 1 nmol (10A) or 100 pmol (10B) under different storage conditions. • The stability was evaluated by determining sex pheromone production in Heliothis peltigera females exposed to said peptide. • The storage conditions are: (i) exposure to direct sunlight and an average temperature of about 31° C. for 1 week (“outdoor 1 week”); and (ii) −80° C. • Sex pheromone content is expressed as a percentage of the pheromone content obtained by injection of a peptide stored as a dry powder at −80° C. (defined as 100%). Statistical analysis compared the pheromone content generated by the different treatments with that of the control (a peptide stored at −80° C.). […] FIG. 11A and FIG. 11B are graphs showing the stability of Peptide 12 dissolved in DDW (A) or IIS (B) at a concentration of 1 nmol, and exposed to direct sunlight and temperatures in the range of 27° C. to 31° C. for 1-4 weeks or by a peptide stored at 4° C. for 1-4 weeks. • The stability was evaluated by determining sex pheromone production in Heliothis peltigera females exposed to said peptide. • Activity is expressed as a percentage of that obtained by Peptide 12 stored at −80° C. (defined as 100%, not shown in the figures). • Statistical analysis compared activity at the same storage time at 4° C. and outdoor, and as a function of time within the same treatment (outdoor or 4° C.) as a function of storage time (capital letters). […] This assay is used to test the agonistic properties of the tested peptides (in adult females), and to determine the peptides melanotropic agonistic or antagonistic properties (in larvae). It was also used to determine the activity of peptides that were stored outdoors for different amounts of time. In order to evaluate the environmental stability of the peptides, peptide 12 (in Table 1) was tested. Stability was monitored by exposing a tube containing the peptide, either in the form of a dry powder or in solution made up in either DDW or IIS at a concentration of 100 pmol or 1 nmol, to direct sun light and a temperature range of 27 to 31° C. (“outdoor”). […] Similar results were obtained at a lower dose of the peptide, of 100 pmol (FIG. 10B). The peptide was also tested for stability for 4 weeks when dissolved in either DDW or IIS, at a concentration of 1 nmol, under the same conditions as above at a temperature range of 27° C. to 31° C.

Substance | stimulation of sex pheromone biosynthesis ([1]; 3 h, in DDW and IIS) | stimulation of sex pheromone biosynthesis ([1]; 3 h, in DMSO) | stimulation of sex pheromone biosynthesis: effect of carrier on bioavailability ([1]; 300 pmol, DDW, DMSO and IIS, 0.5 to 7 h) | stimulation of sex pheromone biosynthesis, dose response by carrier ([1]; 3 h, DDW, IIS, DMSO) | stability: pheromone-stimulating activity after storage vs peptide stored at -80° C. ([2]; dissolved in DDW or IIS, 100 pmol, 1 week) | activity of peptide kept outdoor vs at 4° C. at the same storage time ([2]; dissolved in DDW or IIS, 1 nmol, 1-4 weeks) | stability: pheromone-stimulating activity after storage vs peptide stored at -80° C. ([2]; dissolved in DDW or IIS, 1 nmol, 1 week) | stability in the course of storage ([2]; dissolved in DDW, 1 nmol, outdoor 27° C. to 31° C. or 4° C.) | stability in the course of storage ([2]; dissolved in IIS, 1 nmol, outdoor 27° C. to 31° C.) | stability: pheromone-stimulating activity after storage vs peptide stored at -80° C. ([2]; dry powder, 1 week, or room temperature)
Tyr-Phe-Trp-Pro-Arg-Leu-amide (YFWPRL-NH2) [Peptide 11, agonistic peptide lacking a dPhe residue, tested for bioavailability] | barely any activity | very active |  |  |  |  |  |  |  | 
Acetyl-Tyr-Phe-Trp-Pro-Arg-Leu-amide (Ac-YFWPRL-NH2) [Peptide 12, agonistic peptide lacking a dPhe residue, tested for bioavailability and environmental stability] |  |  | IIS has been found to be the best carrier | higher activity in IIS compared to DDW or DMSO | no significant difference | No differences | no significant difference | the activity dropped in the course of storage | much more stable | no significant difference
